Patent publication US20080108569A1, “Compositions and Methods for Treating Diseases Associated With Phlpp” (The Regents of the University of California, priority 2005, published 2008)

Legend:
MEK 1/2 or ERK 1/2 = test: MAPK signaling pathway on PHLPP2 expression (Western blot); assay type: cell-based; conditions: untreated cells
Protocol: (§1) ZR-75-1 cell lines were maintained in RPMI 1640 (Cellgro), and all other cell lines were maintained in DMEM (Celigro); both media were supplemented with 10% FBS and 1% penicillin/streptomycin. Cells were maintained at 37° C. in 5% CO2. Transient transfections and siRNA experiments were performed as previously described (6), except for ZR-75-1 cells, which were transfected using FuGENE reagent (Roche). For immunoblotting, transfected cells were lysed in Buffer 1 (50 mM Na2HPO4, pH 7.5, 1 mM sodium pyrophosphate, 20 mM NaF, 2 mM EDTA, 2 mM EGTA, 1% SDS, 1 mM DTT, 200 mM benzamidine, […] leupeptin, and 1 mM PMSF) and sonicated for 5 seconds. Lysates containing equal protein were analyzed on SDS-PAGE gels, and individual blots were probed using each antibody. Densitometric analysis was performed with the NIH Image analysis software (version 1.63).

MDA-MB-231 cells = test: apoptosis assay, sub-2N DNA by flow cytometry; assay type: cell-based; conditions: from 2.9+0.9 without PHLPP2
Protocol: (§2) Apoptosis assays were performed as described previously (Brognard et al., 2001). Briefly, cells were transfected with different PHLPP expression constructs or siRNAs. In the case of gating for transfected cells, a GFP expression construct was co-transfected into the cells. Approximately 24 hours post-transfection, the cells were switched to low serum medium (DMEM plus 0.1% FBS) and allowed to grow for an additional 48 hours. For LY294002 (25 μM) treatment, the drug was added at the time when the cells were switched into the low serum medium. The cells were collected and stained with propidium iodide (25 μg/ml). Apoptotic cells were defined as sub-2N DNA containing cells. Quantification of apoptosis was obtained using flow cytometry analysis with a Becton Dickinson FACSort.
(§3) Apoptotic assays were performed as described above. To determine G1/S ratios, cells were co-transfected with GFP and HA-PHLPP2 and incubated under high serum (10% FBS) conditions for 48 hrs and cells were gated based on GFP expression as described above. For BrdU incorporation assays, cells were transfected with 100 nM siRNA (si-1) and incubated for 48 hrs prior to performing assay following manufacturers protocol (Oncogene Research Products).

H157 cells [1] = test: apoptosis assay, sub-2N DNA by flow cytometry; assay type: cell-based; conditions: serum deprivation; vector-transfected cells 3.1±0.1%
Protocol: as §2, §3

Bt-474 cells = test: apoptosis assay, sub-2N DNA by flow cytometry; assay type: cell-based; conditions: from 2.0+0.2 without PHLPP2
Protocol: as §2, §3

Akt [2] = test: Akt phosphorylation in cells overexpressing HA-PHLPP2 (Western blot); assay type: cell-based
Protocol: as §1

PKC, p90RSK, or p70S6K = test: phosphorylation of the hydrophobic motif in other AGC family kinases on PHLPP2 expression (Western blot); assay type: cell-based; conditions: 293T and H157 cells
Protocol: as §1

Akt [3] = test: in vitro kinase assay of Akt immunoprecipitated from 293T cells overexpressing PHLPP2; assay type: cell-based
Protocol: H157 cells transfected with vector or HA-PHLPP were lysed in buffer A. The detergent-solubilized cell lysates were incubated with an anti-Akt monoclonal antibody (5G3) and Ultra-link protein A/G beads (Pierce) at 4° C. overnight. Beads were washed three times in buffer A and twice in buffer B (25 mM Tris, pH 7.4, 10 mM MgCl2 and 1 mM DTT). In vitro kinase assays were carried out by incubating immunoprecipitated Akt in buffer containing 25 mM Tris, pH 7.4, 10 mM MgCl2 and 1 mM DTT, 200 μM ATP, 6 μM Crosstide (Upstate Biotechnology) and ^32Pγ-ATP at 30° C. for 30 minutes. Each reaction was performed in duplicate. The reactions were spotted onto P81 filter paper (Whatman), and radioactivity incorporated into the peptide was measured using a scintillation counter.
Akt was immunoprecipitated from cell lysates using Akt agarose (Upstate Biotechnologies) and kinase reactions were performed using an Akt kinase assay kit (Cell Signaling) as described previously in Example 5.

Akt [4] = target: T1, Akt (Homo sapiens, UniProt P31749); test: dephosphorylation assay with immunoprecipitated full-length HA-PHLPP2 and pure Akt; assay type: biochemical
T1 construct: 6His; made in house; host or cells: Akt1: baculovirus-infected Sf21 cells; HA-PHLPP2: transfected 293T cells, immunoprecipitated with HA antibody
T1 sequence (P31749 whole entry): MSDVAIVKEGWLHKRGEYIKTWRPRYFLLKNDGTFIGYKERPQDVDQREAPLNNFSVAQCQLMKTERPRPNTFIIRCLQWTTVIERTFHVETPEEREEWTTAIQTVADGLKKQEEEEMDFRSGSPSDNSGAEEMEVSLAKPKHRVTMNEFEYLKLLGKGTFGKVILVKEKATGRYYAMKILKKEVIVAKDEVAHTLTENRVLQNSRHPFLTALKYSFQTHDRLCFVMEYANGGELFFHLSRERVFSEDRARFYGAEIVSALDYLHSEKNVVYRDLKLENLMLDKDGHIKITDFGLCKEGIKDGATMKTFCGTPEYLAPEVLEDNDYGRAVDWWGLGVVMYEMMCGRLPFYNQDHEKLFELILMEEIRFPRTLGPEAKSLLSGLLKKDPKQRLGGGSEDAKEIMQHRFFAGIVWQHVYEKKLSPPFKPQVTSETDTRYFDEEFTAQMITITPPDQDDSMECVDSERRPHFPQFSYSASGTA
Protocol: A GST-fusion protein of PHLPP-1α-PP2C was expressed in BL21 (DE3) and purified using glutathione-Sepharose. The GST-PP2C proteins were eluted from the beads in PBS containing 10 mM glutathione and 1 mM DTT, and dialyzed against 50 mM Tris (pH 7.4) and 1 mM DTT. His-tagged Akt was expressed and purified from baculovirus-infected Sf21 cells. Briefly, Sf21 cells were maintained in SF-900 II media (Invitrogen) and infected with baculovirus encoding His-Akt for 3 days. To obtain maximally phosphorylated Akt as substrate, the infected cells were treated with 10% FBS and calyculin A (100 nM) for 15 minutes prior to lysis. The infected cells were lysed in PBS containing 1% Triton X-100 and 10 mM imidazole, and His-Akt proteins were purified using Ni-NTA beads (Qiagen). The dephosphorylation reactions were carried out in a reaction buffer containing 50 mM Tris (pH 7.4), 1 mM DTT and 5 mM MnCl2 at 30° C. for 0-30 minutes.
GST-PP2C was expressed in BL21 bacterial cells; phosphatase assays were performed using the purified GST-PP2C construct conjugated to glutathione-sepharose and pure Akt as a substrate as described above. The activity of full length HA-PHLPP2 was assessed by expressing and immunoprecipitating PHLPP2 from 293T or H157 cell lysates. Cells were lysed in Buffer 2 (20 mM HEPES, pH 7.4, 1% Triton X-100, 1 mM DTT, 200 mM benzamidine, […] leupeptin, and 1 mM PMSF). […]

293T cells = test: G1/S ratio by flow cytometry, PHLPP2 expression; assay type: cell-based; conditions: high serum (10% FBS), 48 hrs
Protocol: as §3

H157 cells [5] = test: G1/S ratio by flow cytometry, PHLPP2 expression; assay type: cell-based; conditions: high serum (10% FBS), 48 hrs
Protocol: as §3

B1: HA-PHLPP2: HA-tagged full length human PHLPP2 expressed from pcDNA3HA vector; PHLPP2 protein is SEQ ID NO: 4 (protein, listed as Homo sapiens)
chain: MKRNGSRNCLNRRSRFGSRERDWLREDVKRGCVYLYGADTTTATTTTTTSSSSSSSSSSSDLHLVLCTVETPASEICAGEGRESLYLQLHGDLVRRLEPTERPLQIVYDYLSRLGFDDPVRIQEEATNPDLGCMIRFYGEKPCHMDRLDRILLSGIYNVRKGKTQLHKWAERLVVLCGTCLIVSSVKDCQTGKMHILPLVGGKIEEVKRRQYSLAFSSAGAQAQTYHVSFETLAEYQRWQRQASKVVSQRISTVDLSCYSLEEVPEHLFYSQDITYLNLRHNFMQLERPGGLDTLYKFSQLKGLNLSHNKLGLFPILLCEISTLTELNLSCNGFHDLPSQIGNLLNLQTLCLDGNFLTTLPEELGNLQQLSSLGISFNNFSQIPEVYEKLTMLDRVVMAGNCLEVLNLGVLNRMNHIKHVDLRMNHLKTMVIENLEGNKHITHVDLRDNRLTDLDLSSLCSLEQLHCGRNQLRELTLSGFSLRTLYASSNRLTAVNVYPVPSLLTFLDLSRNLLECVPDWACEAKKIEVLDVSYNLLTEVPVRILSSLSLRKLMLGHNHVQNLPTLVEHIPLEVLDLQHNALTRLPDTLFSKALNLRYLNASANSLESLPSACTGEESLSMLQLLYLTNNLLTDQCIPVLVGHLHLRILHLANNQLQTFPASKLNKLEQLEELNLSGNKLKTIPTTIANCKRLHTLVAHSNNISIFPEILQLPQIQFVDLSCNDLTEILIPEALPATLQDLDLTGNTNLVLEHKTLDIFSHITTLKIDQKPLPTTDSTVTSTFWSHGLAEMAGQRNKLCVSALAMDSFAEGVGAVYGMFDGDRNEELPRLLQCTMADVLLEEVQQSTNDTVFMANTFLVSHRKLGMAGQKLGSSALLCYIRPDTADPASSFSLTVANVGTCQAVLCRGGKPVPLSKVFSLEQDPEEAQRVKDQKAIITEDNKVNGVTCCTRMLGCTYLYPWILPKPHISSTPLTIQDELLILGNKALWEHLSYTEAVNAVRHVQDPLAAAKKLCTLAQSYGCQDNVGAMVVYLNIGEEGCTCEMNGLTLPGPVGFASTTTIKDAPKPATPSSSSGIASEFSSEMSTSEVSSEVGSTASDEHNAGGLDTALLPRPERRCSLHPTPTSGLFQRQPSSATFSSNQSDNGLDSDDDQPVEGVITNGSKVEVEVDIHCCRGRDLENSPPLIESSPTLCSEEHARGSCFGIRRQNSVNSGMLLPMSKDRMELQKSPSTSCLYGKKLSNGSIVPLEDSLNLIEVATEVPKRKTGYFAAPTQMEPEDQFVVPHDLEEEVKEQMKQHQDSRLEPEPHEEDRTEPPEEFDTAL
modifications: HA tag
- phosphorylation of MEK 1/2 or ERK 1/2 (MEK 1/2 or ERK 1/2): did not alter
- apoptosis (sub-2N-DNA content) (MDA-MB-231 cells): 11.5+3.6 relative units
- relative sub-2N DNA (apoptosis) (H157 cells [1]): 28±5%
- apoptosis (sub-2N-DNA content) (Bt-474 cells): 15.8+0.6 relative units
- decrease in phosphorylation at Ser 473 (Akt [2]; Bt-474 cell line): approximately 80%
- decrease in phosphorylation at Ser 473 (Akt [2]; MDA-MB-231 cell line): ~70%
- effects on the phosphorylation of Thr 308 (Akt [2]; overexpression in 293T and H157 cells): minimal effects
- reduction in phosphorylation at Ser 473 (Akt [2]; overexpression in 293T cells): 76±3%
- reduction in phosphorylation at Ser 473 (Akt [2]; overexpression in H157 cells): 72+8%
- effect on the phosphorylation of the hydrophobic motif in PKC, p90RSK, or p70S6K (PKC, p90RSK, or p70S6K): no significant effect
- reduction in Ser 473 phosphorylation of immunoprecipitated Akt (Akt [3]; 293T cells overexpressing PHLPP2, compared to vector-transfected cells): 70%
- reduction in substrate phosphorylation (GSK-3 fusion protein) (Akt [3]; Akt from 293T cells overexpressing PHLPP2): 80%
- dephosphorylation of Ser 473 (Akt [4]): 60+4%
- effect on Thr 308 phosphorylation (Akt [4]): no significant effect
- increase in the G1/S ratio (293T cells): approximately 3 fold
- increase in the G1/S ratio (H157 cells [5]): approximately 2 fold
